# Article PMC11563578 (eLife, 2024)
# Molecular target: T1, RNA polymerase II subunit Rpb1 (S. cerevisiae, UniProt P04050 1-1733)
# T1 construct: Rpb1, largest subunit of yeast RNA polymerase II; source: endogenous, S. cerevisiae; also the Δrpb4 RPB2-HFH strain
# Assay: cross-linking; affinity-purified holo-pol II and ΔRpb4 pol II cross-linked with C1q2/C2q2 Q2linkers in a crosslinker swapping experiment (experiments I and II), pooled, MS; crosslinks identified with pLink2 and Nexus against the 12 pol II subunits
# Conditions: both partners purified
# T1 sequence (P04050 whole entry): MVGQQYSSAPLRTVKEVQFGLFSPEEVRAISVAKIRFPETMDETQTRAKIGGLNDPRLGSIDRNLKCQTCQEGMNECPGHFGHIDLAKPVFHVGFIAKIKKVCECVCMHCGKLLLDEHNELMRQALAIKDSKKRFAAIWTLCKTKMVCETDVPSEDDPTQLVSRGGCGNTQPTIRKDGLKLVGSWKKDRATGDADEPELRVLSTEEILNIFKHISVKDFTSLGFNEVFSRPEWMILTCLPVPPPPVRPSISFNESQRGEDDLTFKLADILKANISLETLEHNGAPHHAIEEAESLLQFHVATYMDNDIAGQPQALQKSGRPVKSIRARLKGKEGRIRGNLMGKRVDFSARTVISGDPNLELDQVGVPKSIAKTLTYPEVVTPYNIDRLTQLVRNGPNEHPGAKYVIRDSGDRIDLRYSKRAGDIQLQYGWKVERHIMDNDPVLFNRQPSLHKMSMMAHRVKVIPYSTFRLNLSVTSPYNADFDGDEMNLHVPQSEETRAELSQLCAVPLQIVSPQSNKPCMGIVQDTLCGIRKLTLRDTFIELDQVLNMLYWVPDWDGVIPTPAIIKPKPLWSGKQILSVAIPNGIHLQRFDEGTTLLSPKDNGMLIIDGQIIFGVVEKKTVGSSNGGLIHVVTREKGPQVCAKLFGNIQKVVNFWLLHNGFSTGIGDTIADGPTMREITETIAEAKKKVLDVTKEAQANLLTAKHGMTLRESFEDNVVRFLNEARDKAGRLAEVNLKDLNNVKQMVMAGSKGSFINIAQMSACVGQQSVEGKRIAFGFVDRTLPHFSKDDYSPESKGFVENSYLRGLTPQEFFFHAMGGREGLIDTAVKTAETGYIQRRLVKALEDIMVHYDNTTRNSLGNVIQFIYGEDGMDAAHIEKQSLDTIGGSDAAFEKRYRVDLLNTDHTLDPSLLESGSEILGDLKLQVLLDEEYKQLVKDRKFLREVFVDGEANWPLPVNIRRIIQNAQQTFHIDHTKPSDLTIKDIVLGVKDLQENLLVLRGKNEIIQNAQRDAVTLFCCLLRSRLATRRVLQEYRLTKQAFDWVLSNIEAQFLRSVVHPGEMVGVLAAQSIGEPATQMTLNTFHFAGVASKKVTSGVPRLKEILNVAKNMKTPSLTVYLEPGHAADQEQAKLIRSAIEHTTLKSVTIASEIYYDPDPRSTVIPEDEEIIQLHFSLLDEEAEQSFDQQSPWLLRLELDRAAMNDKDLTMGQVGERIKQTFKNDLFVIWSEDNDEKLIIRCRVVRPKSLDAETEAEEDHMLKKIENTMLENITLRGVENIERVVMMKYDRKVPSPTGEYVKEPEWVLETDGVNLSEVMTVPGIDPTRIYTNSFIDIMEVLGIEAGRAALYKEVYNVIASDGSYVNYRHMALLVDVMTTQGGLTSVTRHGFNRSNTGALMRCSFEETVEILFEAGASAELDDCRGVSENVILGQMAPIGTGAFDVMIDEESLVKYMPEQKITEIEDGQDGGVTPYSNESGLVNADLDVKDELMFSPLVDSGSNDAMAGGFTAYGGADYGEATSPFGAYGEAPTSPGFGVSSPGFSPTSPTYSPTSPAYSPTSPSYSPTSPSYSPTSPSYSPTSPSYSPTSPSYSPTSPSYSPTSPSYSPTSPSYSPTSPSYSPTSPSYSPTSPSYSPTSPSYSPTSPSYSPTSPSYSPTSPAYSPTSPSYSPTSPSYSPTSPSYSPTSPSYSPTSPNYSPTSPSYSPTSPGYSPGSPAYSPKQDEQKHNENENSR
row,binding result,Binder
1,binds,"RNA polymerase II subunit Rpb7 (natural protein, S. cerevisiae, UniProt P34087 1-171, looked up, Rpb7, subunit of yeast RNA polymerase II; also called Rbp7; source: endogenous, S. cerevisiae; sub-stoichiometric from the Δrpb4 RPB2-HFH strain) MFFIKDLSLNITLHPSFFGPRMKQYLKTKLLEEVEGSCTGKFGYILCVLDYDNIDIQRGRILPTDGSAEFNVKYRAVVFKPFKGEVVDGTVVSCSQHGFEVQVGPMKVFVTKHLMPQDLTFNAGSNPPSYQSSEDVITIKSRIRVKIEGCISQVSSIHAIGSIKEDYLGAI"
2,binds,"RNA polymerase II subunit Rpb9 (natural protein, S. cerevisiae, UniProt P27999 1-122, looked up, Rpb9, subunit of yeast RNA polymerase II; source: endogenous, S. cerevisiae; also the Δrpb4 RPB2-HFH strain) MTTFRFCRDCNNMLYPREDKENNRLLFECRTCSYVEEAGSPLVYRHELITNIGETAGVVQDIGSDPTLPRSDRECPKCHSRENVFFQSQQRRKDTSMVLFFVCLSCSHIFTSDQKNKRTQFS"
